The values below come from a protein production outcome set (Wang et al. 2014).

The data set can be described thus: label from the status in PepcDB records.

On to “MAHGIPSQGKVTITVDEYSSNPTQAFTHYNINQSRFQPPHVHMVDPIPYDTPKPAGHTRFVCISDTHSRTDGIQMPYGDILLHTGDFTELGLPSEVKKFNDWLGNLPYEYKIVIAGNHELTFDKEFMADLVKQDYYRFPSVSKLKPEDFDNVQSLLTNSIYLQDSEVTVKGFRIYGAPWTPWFNGWGFNLPRGQSLLDKWNLIPEGIDILMTHGPPLGFRDWVPKELQRVGCVELLNTVQRRVRPKLHVFGGIHEGYGIMTDGYTTYINASTCTVSFQPTNPPIIFDLPNPQGS”, for which the protein production entry is recorded as “failed”.
For “MAHGPTRQKITLTTEVAAEPAEVWARIGDFQDMSWHPAVHSSTGENGNEIDATRVLSLGAADGPTISEILYKYSDEKMSYSYRITDVLVEVLPVTNYSSHLTVKARDGGGSVIEWRGAFYRGYPNNDPPEDLEHHHHHH”, the protein production entry is reported as “failed”.
On to “MAHHHHHHMRKIYIAGPAVFNPDMGASYYNKVRELLKKENVMPLIPTDNEATGALDIRQKNIQMIKDCDAVIADLSPFRGHEPDCGTAFEVGYAAALNKMVLTFTSDRRNMREKYGSEVDKDNLRVEGFGLPFNLMLYDGVEVFDSFESAFKYFLANFPSK”, for which the protein production result is given as “not failed”.
The result for “MAHHHHHHSLDAAAATLPRKSGSVDRLVRLAEADMAGVNRLITDRMQSDVAIIPALAEHLIAAGGKRLRPLMTVAAARLAGADNDHFQKLAAAVEFIHTATLLHDDVVDGSQLRRGKVAAHLIWGGAQSVLVGDFLFARAFELMVETNSMKALEILARASRVIAEGEVLQLMRSHDLNLSQAVYLEIIQAKTAELFAAASEAGAVSAGVDVAKSEALRDYGLNLGLAFQLADDALDYGGATETLGKNAGDDFREGKATLPLLLAIARSGPREAEFWERAIGRREQTEADFRRARELIIGSGALDATLDLAADYADKAKAALAMFPANDWREALEELADFAVSRRA” reads “not failed”; that for “MAHKKGLGSTRNGRDSQAKRLGVKRYEGQVVRAGNILVRQRGTRFKPGKNVGMGRDFTLFALVDGVVEFQDRGRLGRYVHVRPLA”, “not failed”; that for “MAIAFHTFLLQLLLFFFASFAEANDSRKTYLVQMKVGGHRYGSSSGHQELLGEVLDDDSYKESFTGFSASLTPRERQKLMSKTTTVSSRRREVLEVSRSRNLKLQTTRSWDFMNLTLKAERNPENESDLVVAVIDSGIWPYSELFGSDSPPPPGWENKCENITCNNKIVGARSYYPKKEKYKWVEEKSVIDVTGHGTHVASIVAGRKVEKAGYFGLAEGTMRGGVPNAKIAVYKTCWRVIRKNGREDSVCREDNILKAIDDAIADKVDIISYSQGFQFTPLQKDKVSWAFLRALKNGILTSAAAGNYANNGKFYYTVANGAPWVMTVAASLKDRIFETKLELEGEDKPIIVYDTINTFETQDSFYPLLNEKAPPESTRKRELIAERNGYSILSNYDEKDKGKDVFFEFAQINLLDEAIKEREKGAIVLGGKSYDFNESIKLQFPIASIFLDEQKKGKLWDYYKKDQSKERLAKIHKTEEIPREEGWVPTVAHLSSRGPNCDSFLANILKNSHMNNCFQPDIAAPGLDIIAGWPENVKLSSDRPANDYRHLRFNIMSGTSMACPHATGLALYLKSFKRWSPSAIKSALMTTSSEMTDDDNEFAYGSGHLNATKVRDPGLVYETHYQDYIDYLCKLGYNTEKLRSHVGSDKIDCSKTEIDHDADLNYPTMTARVPLPLDTPFKKVFHRTVTNVNDGEFTYLREINYRGDKDFDEIIVDPPQLKFSELGETKTFTVTVTGISKRNWNKNRAFMTRNTWLTWTEKDGSRQVRSPIVIYSIKGPKACM”, “failed”.
With “MAIATARAGGKETGTEQMYILQVTNSRSTMSKMSNVKEVNASTAFSMIKKGALLVDVRETREINRKAFGVSDYLSVPMSRFQSSLHEIPAERKVILACHSGNRSSIASRILVNSGHRKVHNLQHGIISWEREGLPVRKKESPSPLTMLFQMFRKEA”, the protein production result is “failed”.
As for “MAIGRLGYLVRGAWAGGVMLLAAGSAWAAPNWPLAPYSYYAQQQSLSDVLREFAAGFSLALQQGKGVQGVVNGRFNARTPTEFIERLSGIYGFNWFVHAGTLYVSRTSDVVTRAVDAAGASPSALRQALLQLGILDERFGWGELPAQGVAMVSGPPAYVALVEQAVAALPKGAGNQQVAVFRLKHASVSDRVIRYRDQQVVTPGMATMLRQLILGAGPGNDAALAAVAAPLRENPPVFGDAAADGNAPLAGAAQAAGRRLSEPSVQADTRLNALIVQDIPERMPIYRALIEQLDVPSTLIEIEAMIVDVNTDLVNELGVTWGAQIGTTSLGYGDLGLRPGNGLPVDGAAADLAPGTLGISVSTRLAARLRALESDGQANILSQPSILTADNLGAMIDLSDTFYIRTLGERVATVTPVTVGTSLRVTPRYIAAKGGRQVELAIDIEDGRVLQEYPIDGLPRVRKSSISTLAVVGDEQTLLIGGYNNRRDEEQVEKVPLLGDIPGLGFLFSSKSRAVQRRERLFLIRPRVVAIEGKPVFSPVAGTSQVFMSTGWGGHGSSLSIAPGEGGHTQVRHDARAGRPVRLVPDSLHVEYGEAGEASP”, the protein production result is reported as “failed”.
On to “MAILHGSWILNEQESCLFIWGETWRSPQVDFNFAEISLNPLALSALELSEWLQSQHQAIAKLLPQQLEKRTSKAASSVKINLLTHSQIIALPTEISQPRKKETILISPVHSAALASESDSEVYLQTWRVEGFCLPPSAAIKLLTSLPLNITSGENAFLGGDLRFWSQIARWSLDLISRSKFLPIIQRQPNNSVSAKWQVLLDSAVDGTRLEKFAAKMPLVCRTYQEIGSGESPIYIDFPSQPQDLILGFLNSAIDTQLREMVGNQPVVETRLMASLPSAVRQWLQALIAASNSIDADAVGLERLEAALKAWTMPLQYQLASKNQFRTCFELRSPEPDETEWTLAYFLQAADDPEFLVDAATIWQNPVEQLIYQQRTIEEPQETFLRGLGLASRLYPVIAPTLDTESPQFCHLKPMQAYEFIKAVAWRFEDSGLGVILPPSLANREGWANRLGLKISAETPKKKPGRLGLQSLLNFQWHLAIGGQTISKAEFDRLVALKSPLVEINGEWVELRPQDIKTAEAFFTARKDQMALSLEDALRLSSGDTQVIEKLPVVSFEASGALQELIGALTNNQAVAPLPTPKNFQGQLRPYQERGAAWLAFLERWGLGACLADDMGLGKTIQFIAFLLHLKEQDVLEKPTLLVCPTSVLGNWEREVRKFAPTLKVLQYHGDKRPKGKAFQEAVKKHDLVITSYSLIHRDIKSLQGIPWQIIVLDEAQNVKNAEAKQSQAVRQLETTFRIALTGTPVENRLQELWSILDFLNPGYLGNKQFFQRRFAMPIEKYGDAASLNQLRALVQPFILRRLKTDRDIIQDLPDKQEMTVFCGLTGEQAALYQKAVETSLAEIESAEGLQRRGMILALLIKLKQICNHPAQYLKINTLEQHSSGKLQRLEEMLEEVLAESNTYGVAGAGRALIFTQFAEWGKLLKPHLEKQLGREIFFLYGGTSKKQREEMIDRFQHDPQGPPIMILSLKAGGVGLNLTRANHVFHFDRWWNPAVENQATDRVFRIGQTRNVQVHKFVCNGTLEEKIHDMIESKKQLAEQVVGAGEEWLTELDTDQLRNLLILDRSTVIDEEAD”, for which the protein production entry is given as “failed”.
In the case of “MAILVTGSTGTIGSQVLAHLQGHNVEVRALTRSPETAQFPAGVTAVRGDLADPDSVRAALRGVSTLFLLAPNVADELTQAMLTLTVAREAGVKGIVYLSVFGGDGYADVPHFAGKYTVERMIEALDLPATILRPAYFIQNDLRQKDGLLKTGVYGSPIGKKGVSMVDIRDIGEAAAIELLRREQAATPLGRETYALVGPDSLTGEGIATIWREALGRAIRHGGDDLVVMEQRTKTMLPAWHALDLRLMFSRYQTEGAVATADDIERLTKLLGHAPRSYTAFARDAAAQWTKG”, the protein production entry is “failed”.
Take “MAIQFIVSNKYTAEVSKQLNDSQNWVLDSGIYYEDHNNHIVSSPINSATKPQNTREEWLWIPPHCQVVVCSTSSLKSFLGCKASEDLDRVFGDHPLWLDQLRPLSNLLENSLIDLLSRAPFEQSSKRNIQSMERGNPVMNWNVMQVEEEDTRGEQRVAASSSLSSSFDWNTFLRDRCGLSEEDVAYCFRKLSRFGRVSLSRLNEDSLLRMGINDPTVIAKLLIGITEEFS”: the protein production result was “failed”.
As to “MAIQKGDFIKLNYTGRFEDGRIFDTTDEELAKKEEIFNPRGLYGGDVVIVGAGHTIEGLDEDLEGKEAGYSSTVTIPPEKAFGLSNSKLVETVSITKFQDRNVHPGLPVELEGKRGVVSRVIGRKVTVDFNSPLAGKTVSYEYTIEKLLEDDVEMIQGLLALYTGMRDMEVEITDGVAKIYVPTGLTFNQRWLMAKNRVVSELFKYAGLKEVQLIEKLTAEAEAPVPAEPEVEAEAEAEAEVEAEVKEETSESHE”, the protein production result is “failed”.
For “MAISDANRGGAPGAAPGPDPAHILHELAGLMAISPGRDFLDELVNRAVQRLGVDYAWVVLHGAKGEHARTVLSANCRMRWNGAESYLATGQSALAGVLSHATQYVCARDLERHVPGDLALRRLGAQACVAHALRDESGLQRGHVAFVFSEPLADPAIYVSALSACAAFTERAVLALDAERKARQEALQLASRYQALFEKAPVLINAFDARGKCILWNLECERKFGWSMEEVNNHPEPLALFYPDPQTRARVVASVSQAPGRAFEEWHPVTRAGKVLSTLWSNIVLESGTIVNIGLDITERKRAELALTRLATIDSLTDCWNRAEILKILRQEITRLRQHPDQPLAVVMLDLDHFKQLNDLHGHLVGDAALRYFSDQLRSNLRGTDFVGRIGGEEFLALLPGCDGDAALAMADRLRAALRNDPFTTEGQAAPLSVSVGIAFATPEDTAVSDVMRRADTALYEAKRRGRDRAVVYFG” the value was “failed”; for “MAKAQTVTILSPVNGDVIALNKVKDPVFSAGMMGLGFGVQPSSGEVVAPVSGQVTMVAETKHAIGFTTPDDHLEVLVHLGIDTVDLKGAPFTVKVAAGDDVQAGDVIATMDLAAIQAANRQTTVILAVTNTSDKLESLDVVTGAKAAGDVTATGRLNANTFNAKRQNRLPKAGKYDQLAADIVANVGGVENVSSLIHCITRLRFYLKDESKANDDVVRDLKGVIDVAKAGGQYQVVIGPAVTDVYDAIIKQIGPGFSNDSETAKAVAETAAAAQRPTTPWGKVKWGISNLIGVITGSMIPVIGLLAASGILKGILALLTTFNLVSPTAPTYVIINAMGDSVFYFLPIFVGFTAGKKLGADPVIMGIIGGVLTYPAIVTMASGKATSTLLGMGINANFFGLPVHVASYTYSIFPMIAGAWLASKLEPWLKRVIPTVLRMIFVPLFEVVIVSGAILLFLGPIITVLSTGLANIIVWVYNLSPAISGLIIGGFYQVLVIFGLHWAVIPIVANDIATTGHSYLNAIVSATMVAQGGAVFAIALKSKLANIQELAWPATISAFCGVTEPAMYGINLKYGRAFVTASIGAAVGGFLTGLMNVNMWGFTGSLIGFTSFVNPKGLDFSFYGFLIASAATIVVSFALTWMFGFKDEDANAVKVAPKKRHLGATA”, “failed”.
On to “MAKEIKFSDSARNLLFEGVRQLHDAVKVTMGPRGRNVLIQKSYGAPSITKDGVSVAKEIELSCPVANMGAQLVKEVASKTADAAGDGTTTATVLAYSIFKEGLRNITAGANPIEVKRGMDKAAEAIINELKKASKKVGGKEEITQVATISANSDHNIGKLIADAMEKVGKDGVITVEEAKGIEDELDVVEGMQFDRGYLSPYFVTNAEKMTAQLDNAYILLTDKKISSMKDILPLLEKTMKEGKPLLIIAEDIEGEALTTLVVNKLRGVLNIAAVKAPGFGDRRKEMLKDIAILTGGQVISEELGLSLENAEVEFLGKAGRIVIDKDNTTIVDGKGHSHDVKDRVAQIKTQIASTTSDYDKEKLQERLAKLSGGVAVIKVGAASEVEMKEKKDRVDDALSATKAAVEEGIVIGGGAALIRAAQKVHLNLHDDEKVGYEIIMRAIKAPLAQIAINAGYDGGVVVNEVEKHEGHFGFNASNGKYVDMFKEGIIDPLKVERIALQNAVSVSSLLLTTEATVHEIKEEKAAPAMPDMGGMGGMGGMGGMM”, for which the protein production result is reported as “failed”.
For “MAKELYVGHMSYEATEDDLRRLFSVAGTVTSVHIITDPETGRSKGCGYVRMLTEEEAKEAIETLDGALLRNRVITVSVARPQKQATRPAPRRGKPGPGGRPGKKRPS” the value was “failed”.
